Laboratory results reported in patent CN108840930A (SHENGYAN MEDICINE TECH WUHAN CO LTD, dated 2018).

Molecular target: 抗体-Fc融合蛋白scFv-3B5-Fc (anti-human CD19 scFv 3B5 fused to human IgG1 Fc) (human, UniProt P01857 99-330 = IgG part)
Assay: concentration-gradient ELISA, Fc-CD19 coated at 100 ng/well, goat anti-human-HRP detection, nonlinear fit (b = KD)

B1: 人Fc-CD19重组蛋白 (recombinant human Fc-CD19, bought from Acrobiosystems) (Fc fusion, UniProt P15391 20-291, looked up)
chain: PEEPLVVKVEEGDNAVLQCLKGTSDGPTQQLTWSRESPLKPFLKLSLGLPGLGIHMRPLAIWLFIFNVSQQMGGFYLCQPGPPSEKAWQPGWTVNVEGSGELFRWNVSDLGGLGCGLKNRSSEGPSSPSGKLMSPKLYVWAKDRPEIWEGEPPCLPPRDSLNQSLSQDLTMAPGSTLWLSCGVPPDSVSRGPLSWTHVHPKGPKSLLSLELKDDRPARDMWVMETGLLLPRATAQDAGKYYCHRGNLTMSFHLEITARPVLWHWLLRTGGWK
notes: Bought reagent; the order here follows the printed name Fc-CD19; also called Fc-CD19重组抗原; 重组人CD19抗原; not shown: Fc part of the bought Fc-CD19 fusion
  Kd: 0.475 nM
